{"source": "the RNAGym collection of RNA variant scans (doi:10.1073/pnas.2313332121)", "parents": {"B1": {"name": "TPR t1 (parent)", "chain": "GACCAAUCUGCCCUCAGAGCUCGAGAACAUCUUCGGAUGCAGAGGAGGCAGGCUUCGGUGGCGCGAUAGCGCCAACGUCCUCAACCUCCAAUGCAUCCCACCACAUGAUGAUGCCUGAAGAGCCUUGGUUUUUUG"}}, "data": [{"variants_of": "B1", "test": "polymerase ribozyme fitness, log enrichment relative to wild type (log ratio); higher = more active; in vitro selection for triplet polymerase activity", "method_in_brief": "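In triplicate, a single round of in vitro selection was run on each mutant library, PCR-built and transcribed, covering one subunit of a heterodimeric triplet polymerase ribozyme. Frozen incubation at −7 °C followed annealing with a biotinylated primer, partner subunit and triplets, and extended constructs were then gel-excised, streptavidin-captured and taken through RT-PCR. Fitness is the logarithm of genotype enrichment over wild-type enrichment, from inverse-variance-weighted replicate averages of Illumina-sequenced inputs and outputs. […] only genotypes with ≥10 input reads and ≥1 read per output were kept.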", "values": [{"variant": "C8A U21C G58C C82A U106G U132A", "polymerase ribozyme fitness (log ratio)": -1.35}, {"variant": "U7C U14C C70U", "polymerase ribozyme fitness (log ratio)": -2.11}, {"variant": "C8A A41U C49G G61A U81C A100U", "polymerase ribozyme fitness (log ratio)": -8.29}, {"variant": "C8G C11U A16C G44C U59C G60A C115G", "polymerase ribozyme fitness (log ratio)": -4.64}, {"variant": "U7G C64U C97U G107A U112A", "polymerase ribozyme fitness (log ratio)": -5.51}, {"variant": "U7A C13A", "polymerase ribozyme fitness (log ratio)": -0.751}, {"variant": "C8G A16G C56G C72A A100C", "polymerase ribozyme fitness (log ratio)": -1.46}, {"variant": "U7G G10A C49U U112G", "polymerase ribozyme fitness (log ratio)": -2.64}, {"variant": "U7G G17U G61U", "polymerase ribozyme fitness (log ratio)": -0.326}, {"variant": "C8A A18G U109C C115A", "polymerase ribozyme fitness (log ratio)": -5.42}, {"variant": "C8A A29U G69U", "polymerase ribozyme fitness (log ratio)": -0.0842}, {"variant": "C8A G58C U59C A105C U132A", "polymerase ribozyme fitness (log ratio)": -2.68}, {"variant": "C8G A26U A29G", "polymerase ribozyme fitness (log ratio)": -3.46}, {"variant": "U7A C12A C20A G42U", "polymerase ribozyme fitness (log ratio)": -3.2}, {"variant": "C8A G63C U78C U81A C101A U109G", "polymerase ribozyme fitness (log ratio)": -5.76}, {"variant": "C8A C53U C56A A75G", "polymerase ribozyme fitness (log ratio)": 0.188}, {"variant": "U7C C13U C15A G45A C72A", "polymerase ribozyme fitness (log ratio)": -0.674}, {"variant": "C8A G58C", "polymerase ribozyme fitness (log ratio)": 0.847}, {"variant": "U7A A41G A66C", "polymerase ribozyme fitness (log ratio)": -1.26}, {"variant": "U7G C12G G17U U21G G69U C86U C124A", "polymerase ribozyme fitness (log ratio)": -6.15}, {"variant": "U7A C40A G71U C89G A103C C124U", "polymerase ribozyme fitness (log ratio)": -6.17}, {"variant": "C8A", "polymerase ribozyme fitness (log ratio)": 0.459}, {"variant": "C8G", "polymerase ribozyme fitness (log ratio)": 0.574}, {"variant": "U7G C79U C124G", "polymerase ribozyme fitness (log ratio)": 2.41}, {"variant": "U7A A41U C72A C85U", "polymerase ribozyme fitness (log ratio)": -0.761}, {"variant": "U7A U33A", "polymerase ribozyme fitness (log ratio)": -3.98}, {"variant": "U7G C104A", "polymerase ribozyme fitness (log ratio)": -2.23}, {"variant": "U7G G61U C70G", "polymerase ribozyme fitness (log ratio)": -5.24}, {"variant": "C8A C49U", "polymerase ribozyme fitness (log ratio)": 0.0763}, {"variant": "U7C U14G A37C", "polymerase ribozyme fitness (log ratio)": -1.12}, {"variant": "U7G C20A G39A C49G G61C A121G", "polymerase ribozyme fitness (log ratio)": -3.89}, {"variant": "U7C C8A G48U G63U G120U C123U", "polymerase ribozyme fitness (log ratio)": -0.338}, {"variant": "C8A U38A A46C", "polymerase ribozyme fitness (log ratio)": -1.09}, {"variant": "C8A G19A U87C A91C G113C G127C", "polymerase ribozyme fitness (log ratio)": -2.18}, {"variant": "U7G G69C C86U", "polymerase ribozyme fitness (log ratio)": -1.06}, {"variant": "U7A U106A C124A", "polymerase ribozyme fitness (log ratio)": 1.98}, {"variant": "C8A G61C A119G U126G", "polymerase ribozyme fitness (log ratio)": -2.44}, {"variant": "C8A A50U U59C G63C", "polymerase ribozyme fitness (log ratio)": -4.31}, {"variant": "C8A G35U", "polymerase ribozyme fitness (log ratio)": -4.85}, {"variant": "C8G A27U A29U G69U C101A C114U", "polymerase ribozyme fitness (log ratio)": -5.18}, {"variant": "C8A U112A G128U", "polymerase ribozyme fitness (log ratio)": 0.095}, {"variant": "U7A C15A A41C C70U", "polymerase ribozyme fitness (log ratio)": -2.92}, {"variant": "U7G U14G C34G", "polymerase ribozyme fitness (log ratio)": -5.56}, {"variant": "U7G C28U G48A G61A", "polymerase ribozyme fitness (log ratio)": -1.28}, {"variant": "U7C C89U U109A", "polymerase ribozyme fitness (log ratio)": -4.17}, {"variant": "U7A C22U G39A G44U C53U C56G G63A A68U C124A U125A", "polymerase ribozyme fitness (log ratio)": -6.98}, {"variant": "U7A C8G A16C A46U C70A", "polymerase ribozyme fitness (log ratio)": -3.78}, {"variant": "U7A G17U A74U G117A A118G", "polymerase ribozyme fitness (log ratio)": -4.25}, {"variant": "U7C G39A C115U G128C", "polymerase ribozyme fitness (log ratio)": -3.58}, {"variant": "U7G A41G C53A C72G C79U A90U A111C", "polymerase ribozyme fitness (log ratio)": -2.28}, {"variant": "U7G C13G", "polymerase ribozyme fitness (log ratio)": 0.14}, {"variant": "C8A G10A G47A", "polymerase ribozyme fitness (log ratio)": -1.74}, {"variant": "U7G A83U U87A A95U C124A", "polymerase ribozyme fitness (log ratio)": 0.494}, {"variant": "U7G U32G C98A", "polymerase ribozyme fitness (log ratio)": -5.15}, {"variant": "U7G G65U G120A", "polymerase ribozyme fitness (log ratio)": -4.13}, {"variant": "U7C G19U U54C A66C", "polymerase ribozyme fitness (log ratio)": -5.92}, {"variant": "C8G A111C G113U", "polymerase ribozyme fitness (log ratio)": -3.45}, {"variant": "C8A A24U G61U C115U G117A", "polymerase ribozyme fitness (log ratio)": -7.42}, {"variant": "U7G U55G C82U", "polymerase ribozyme fitness (log ratio)": 0.425}, {"variant": "C8A A37C C101G", "polymerase ribozyme fitness (log ratio)": -1.22}, {"variant": "U7G G52U C64U C123G", "polymerase ribozyme fitness (log ratio)": 1.52}, {"variant": "U7A C12A C28G G58A U87G G120U", "polymerase ribozyme fitness (log ratio)": -1.72}, {"variant": "C8A G42A C62A C114U", "polymerase ribozyme fitness (log ratio)": -2.59}, {"variant": "C8A C64U A121G", "polymerase ribozyme fitness (log ratio)": 1.81}, {"variant": "U7G G19A G44C C114G G120U", "polymerase ribozyme fitness (log ratio)": -3.21}, {"variant": "C8G A74U", "polymerase ribozyme fitness (log ratio)": 0.0385}, {"variant": "U7C G42C C72A C88U C115U U133A", "polymerase ribozyme fitness (log ratio)": -0.456}, {"variant": "C8A C89U", "polymerase ribozyme fitness (log ratio)": 0.136}, {"variant": "C8G C11A G51A G71U U106G G113U U125G", "polymerase ribozyme fitness (log ratio)": -6.93}, {"variant": "U7A U9C C12U G57C G63U", "polymerase ribozyme fitness (log ratio)": -0.748}, {"variant": "U7C C8U C34G C73U", "polymerase ribozyme fitness (log ratio)": -5.57}, {"variant": "C8G A43U", "polymerase ribozyme fitness (log ratio)": -0.695}, {"variant": "C8G A50C", "polymerase ribozyme fitness (log ratio)": 0.0345}, {"variant": "U7G U30A C101U U109A C124A", "polymerase ribozyme fitness (log ratio)": -3.51}, {"variant": "C8A C20A U126A", "polymerase ribozyme fitness (log ratio)": -3.84}, {"variant": "U7G G120C", "polymerase ribozyme fitness (log ratio)": 0.815}, {"variant": "C8G C13G C98U", "polymerase ribozyme fitness (log ratio)": -0.112}, {"variant": "U7A U87A C89G", "polymerase ribozyme fitness (log ratio)": -1.86}, {"variant": "U7G C97G", "polymerase ribozyme fitness (log ratio)": -3.9}, {"variant": "U7G G107A", "polymerase ribozyme fitness (log ratio)": -4.15}, {"variant": "U7G G35U G57U U87A A121G", "polymerase ribozyme fitness (log ratio)": -3.9}, {"variant": "U7G U21A U55G A121C", "polymerase ribozyme fitness (log ratio)": 1.32}, {"variant": "U7A C11A A26U G63A U112A G127U", "polymerase ribozyme fitness (log ratio)": -3.63}, {"variant": "U7G C70G C102U U106A", "polymerase ribozyme fitness (log ratio)": -4.46}]}]}
